This is an account of results in patent US20170210799A1 (Janssen / Centocor, published 2017).

For test [1], the target named is T1, human ROR1 (Receptor Tyrosine Kinase-Like Orphan Receptor 1) on cells (human, UniProt Q01973 30-937).
T1 construct: whole, on cells; also called hu ROR1
Nature of the test: MSD-CAT, HEK293 cells expressing human ROR1; apparent KD (bivalent, avidity).

The target of test [2] is T2, human ROR1 (Receptor Tyrosine Kinase-Like Orphan Receptor 1) on cells (human, UniProt Q01973 30-937).
T2 construct: whole, on cells; endogenous on SKMES-1, MDA-MB231, H358, HCC827 and MCL lines, or on HEK293 cells transfected with human ROR1 (pDR25226); the cell line is named under assay; also called cell-surface ROR1; hu ROR1
Nature of the test: cell binding, ROR1 expressing H358 cells.

The target of test [3] is T3, ROR1 extracellular domain c-Mer proto-oncogene tyrosine kinase transmembrane domain (ROR1 ECD MERTK tm) (Homo sapiens (Human), UniProt Q01973 30-405).
T3 construct: also called RR1W1; ROR1-Transfected CHO
Nature of the test: cell binding, ROR1 transiently transfected HEK293F cells.

The target of test [4] is ROR1 ECD MERTK tm (RR1W1) on transfected HEK293F cells (Homo sapiens (Human), UniProt Q01973 30-405). Nature of the test: cell binding, ROR1 transfected 293F cells.
Test [5] deals with T1, human ROR1 (Receptor Tyrosine …). Nature of the test: cell binding, H358 cells.

Chain of ROR1 ECD MERTK tm (RR1W1) on transfected HEK293F cells (Q01973 other isoform, or with tags, fused parts or gaps): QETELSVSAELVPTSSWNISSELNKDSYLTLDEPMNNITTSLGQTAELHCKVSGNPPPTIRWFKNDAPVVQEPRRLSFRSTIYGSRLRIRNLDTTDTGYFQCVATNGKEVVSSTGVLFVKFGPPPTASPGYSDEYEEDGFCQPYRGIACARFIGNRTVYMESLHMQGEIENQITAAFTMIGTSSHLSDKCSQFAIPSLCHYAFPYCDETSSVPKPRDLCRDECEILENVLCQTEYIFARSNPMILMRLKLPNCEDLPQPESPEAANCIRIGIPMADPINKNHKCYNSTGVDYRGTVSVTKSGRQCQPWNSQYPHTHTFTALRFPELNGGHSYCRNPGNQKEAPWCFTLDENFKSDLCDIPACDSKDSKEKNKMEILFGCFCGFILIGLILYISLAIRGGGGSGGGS
T3 sequence (Q01973 other isoform, or with tags, fused parts or gaps): as above

B1: RR1B67 (antibody, human IgG4 S228P, kappa, F234A L235A, V domains shown)
VH: QVQLVQSGAEVKKPGSSVKVSCKASGGTFSTYAIHWVRQAPGQGLEWMGRIIPIEGRAYYAQKFQGRVTITADESTSTAYMELSSLRSEDTAVYYCARGRYSYRYWFDYWGQGTLVTVSS
VL: EIVLTQSPATLSLSPGERATLSCRASQSVSSYLAWYQQKPGQAPRLLIYDASNRATGIPARFSGSGSGTDFTLTISSLEPEDFAVYYCQQRSNWPLTFGQGTKVEIKR
notes: huIgG4 PAA, kappa; also called RRIB67
With B1, the Kd in test [1] turned out to be 0.055 nM.

B2: CD3B219 (antibody, human IgG4 S228P, lambda, F234A L235A, V domains shown)
VH: EVQLVESGGGLVQPGGSLRLSCAASGFTFNTYAMNWVRQAPGKGLEWVARIRSKYNNYATYYAASVKGRFTISRDDSKNSLYLQMNSLKTEDTAVYYCARHGNFGNSYVSWFAYWGQGTLVTVSS
VL: QTVVTQEPSLTVSPGGTVTLTCRSSTGAVTTSNYANWVQQKPGQAPRGLIGGTNKRAPGTPARFSGSLLGGKAALTLSGVQPEDEAEYYCALWYSNLWVFGGGTKLTVLG
notes: IgG4 PAA anti-CD3 parental antibody; also called anti-CD3 antibody CD3B219; anti-CD3 antibodies
For the molecule B2, the binding result in test [2] and in test [3] was “no binding” each time.

B3: CD3B219 (antibody, human IgG4 S228P, lambda, F234A L235A, V domains shown)
VH: B2 VH
VL: B2 VL
notes: parental anti-CD3 mAb; also called anti-CD3 antibody; Anti-CD3
On to B3, for which the binding result in test [4] and in test [5] was “no binding” each time.
